Target: the molecule itself
Experiment: SEC; HiLoad Superdex 200 26/60 in 20 mM Tris pH 7.5, 150 mM NaCl; tag removed

B1: aminoglycoside acetyltransferase (3)-IIIa (enzyme)
chain: MTDLNIPHTHAHLVDAFQALGIRAGQALMLHASVKAVGAVMGGPNVILQALMDALTPDGTLMMYAGWQDIPDFIDSLPDALKAVYLEQHPPFDPATARAVRENSVLAEFLRTWPCVHRSANPEASMVAVGRQAALLTANHALDYGYGVESPLAKLVAIEGYVLMLGAPLDTITLLHHAEYLAKMRHKNVVRYPCPILRDGRKVWVTVEDYDTGDPHDDYSFEQIARDYVAQGGGTRGKVGDADAYLFAAQDLTRFAVQWLESRFGDSASYG
notes: AAC(3)-IIIa from Pseudomonas aeruginosa, GenBank CAA39184.1; gene synthesized with codons optimized for E. coli, in pET15b between NdeI and BamHI; Hexahistidine tag removed by thrombin; residues of the thrombin site and vector may be left at the N-terminus; Crystals held CoASH and an aminoglycoside (gentamicin, sisomicin or neomycin); also called AAC(3)-IIIa; iso^A; source: LOBSTR E. coli, …
- stoichiometry N: 2

Source: PMC9348671, “Structural elucidation of substrate-bound aminoglycoside acetyltransferase (3)-IIIa” (PLoS ONE, 2022)
